Source: patent US20240317834A1, “COMPOSITIONS AND METHODS FOR NEUROLOGICAL DISEASES” (CODA BIOTHERAPEUTICS, INC., priority 2020, published 2024)

Test system: Lenti-X 293T cells
Experiment: YFP fluorescence quenching anion reporter plate reader assay of engineered receptors stimulated with acetylcholine or a non-native ligand
Assay type: cell-based
Details: for percent quench of YFP fluorescence, 30 nM TC-6683: TC-6683 30 nM; for percent quench of YFP fluorescence, 300 nM TC-6683: TC-6683 300 nM; for percent quench of YFP fluorescence, 3 uM TC-6683: TC-6683 3 uM; for percent quench of YFP fluorescence, 30 uM TC-6683: TC-6683 30 uM; for percent quench of YFP fluorescence, 100 uM TC-6683: TC-6683 100 uM; for percent quench of YFP fluorescence, 10 uM ach: acetylcholine 10 uM; for percent quench of YFP fluorescence, 100 uM ach: acetylcholine 100 uM; for percent quench of YFP fluorescence, 1 mM ach: acetylcholine 1 mM; for percent quench of YFP fluorescence, 3 mM ach: acetylcholine 3 mM
In short: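 Lenti-X 293T cells carrying a YFP anion reporter were transiently transfected with channel DNA and assayed the next day in HEPES-buffered ECS at pH 7.2. Ligand (acetylcholine or non-native ligand) was added in NaI-substituted ECS. Percent quench was the mean of the last 10 s relative to the 15 s pre-addition baseline.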

B1: CODA965: engineered chimeric LGIC receptor, Y140C in SEQ ID NO: 33 (protein)
chain: MRCSPGGVWLALAASLLHVSLQGEFQRKLYKELVKNYNPLERPVANDSQPLTVYFSLSLLQIMDVDEKNQVLTTNIWLQMSWTDHYLQWNVSEYPGVKTVRFPDGQIWKPDILLYNSADERFDATFHTNVLVNSSGHCQCLPPGIFKSSCPMDLKNFPMDVQTCKLKFGSWSYGGWSLDLQMQEADISGYIPNGEWDLVGIPGKRSERFYECCKEPYPDVTFTVTMRRRMGYYLIQMYIPSLLIVILSWISFWINMDAAPARVGLGITTVLTMTTQSSGSRASLPKVSYVKAIDIWMAVCLLFVFSALLEYAAVNFVSRQHKELLRFRRKRRHHKSPMLNLFQEDEAGEGRFNFSAYGMGPACLQAKDGISVKGANNSNTTNPPPAPSKSPEEMRKLFIQRAKKIDKISRIGFPMAFLIFNMFYWIIYKIVRREDVHNQ
modifications: synthetic sequence of chimeric LGIC
YFP fluorescence quenching using CNL001 (1 nM CNL001, first column): −12.765%
YFP fluorescence quenching using CNL001 (1 nM CNL001, second column): −12.608%
YFP fluorescence quenching using TC-5619/Bradanicline (3 nM brd): −18.49%
YFP fluorescence quenching using Varenicline (3 nM var, first column): −17.716
YFP fluorescence quenching using Varenicline (3 nM var, second column): −23.019
YFP fluorescence quenching using CNL001 (10 nM CNL001, first column): 68.134%
YFP fluorescence quenching using CNL001 (10 nM CNL001, second column): 71.394%
YFP fluorescence quenching using TC-5619/Bradanicline (30 nM brd): 22.66%
YFP fluorescence quenching using Facinicline (30 nM fac): −12.29
YFP fluorescence quenching using Varenicline (30 nM var, first column): −14.993
YFP fluorescence quenching using Varenicline (30 nM var, second column): −12.182
YFP fluorescence quenching using CNL001 (50 nM CNL001, first column): 80.298%
YFP fluorescence quenching using CNL001 (50 nM CNL001, second column): 82.159%
YFP fluorescence quenching using ABT-126 (50 nM abt): −10.75%
YFP fluorescence quenching using CNL001 (100 nM CNL001, first column): 82.404%
YFP fluorescence quenching using CNL001 (100 nM CNL001, second column): 82.14%
YFP fluorescence quenching using CNL002 (100 nM CNL002): 43.24%
YFP fluorescence quenching using ABT-126 (100 nM abt): −4.11%
YFP fluorescence quenching using AZD-0328 (100 nM azd0328): −16.69%
YFP fluorescence quenching using ABT-126 (300 nM abt): 18.93%
YFP fluorescence quenching using AZD-0328 (300 nM azd0328): 1.3%
YFP fluorescence quenching using TC-5619/Bradanicline (300 nM brd): 38.02%
YFP fluorescence quenching using Facinicline (300 nM fac): 20.11
YFP fluorescence quenching using Varenicline (300 nM var, first column): −11.731
YFP fluorescence quenching using Varenicline (300 nM var, second column): −10.13
YFP fluorescence quenching using Varenicline (500 nM var, first column): −12.518
YFP fluorescence quenching using Varenicline (500 nM var, second column): −15.043
YFP fluorescence quenching using CNL001 (1 uM CNL001, first column): 82.34%
YFP fluorescence quenching using CNL001 (1 uM CNL001, second column): 80.649%
YFP fluorescence quenching using CNL002 (1 uM CNL002): 42.72%
YFP fluorescence quenching using ABT-126 (1 uM abt): 52.64%
YFP fluorescence quenching using TC-6987 (1 uM tc6987): 2.73
YFP fluorescence quenching using Varenicline (1 uM var, first column): −13.385
YFP fluorescence quenching using Varenicline (1 uM var, second column): −17.022
YFP fluorescence quenching using TC-6987 (10 uM tc6987): 30.37
YFP fluorescence quenching using CNL002 (30 uM CNL002): 51.43%
YFP fluorescence quenching using AZD-0328 (30 uM azd0328): 21.78%
YFP fluorescence quenching using Facinicline (30 uM fac): 37.62
YFP fluorescence quenching using TC-6987 (500 uM tc6987): 33.07
percent quench of YFP fluorescence, 30 nM TC-6683: −8.21%
percent quench of YFP fluorescence, 300 nM TC-6683: −16.37%
percent quench of YFP fluorescence, 3 uM TC-6683: −19.48%
percent quench of YFP fluorescence, 30 uM TC-6683: −24.32%
percent quench of YFP fluorescence, 100 uM TC-6683: −24.99%
percent quench of YFP fluorescence, 10 uM ach: −21.71%
percent quench of YFP fluorescence, 100 uM ach: 3.49%
percent quench of YFP fluorescence, 1 mM ach: 63.34%
percent quench of YFP fluorescence, 3 mM ach: 51.92%

B2: CODA1047: engineered chimeric LGIC receptor, R101F, Y210V in SEQ ID NO: 33 (protein)
chain: MRCSPGGVWLALAASLLHVSLQGEFQRKLYKELVKNYNPLERPVANDSQPLTVYFSLSLLQIMDVDEKNQVLTTNIWLQMSWTDHYLQWNVSEYPGVKTVFFPDGQIWKPDILLYNSADERFDATFHTNVLVNSSGHCQYLPPGIFKSSCPMDLKNFPMDVQTCKLKFGSWSYGGWSLDLQMQEADISGYIPNGEWDLVGIPGKRSERFVECCKEPYPDVTFTVTMRRRMGYYLIQMYIPSLLIVILSWISFWINMDAAPARVGLGITTVLTMTTQSSGSRASLPKVSYVKAIDIWMAVCLLFVFSALLEYAAVNFVSRQHKELLRFRRKRRHHKSPMLNLFQEDEAGEGRFNFSAYGMGPACLQAKDGISVKGANNSNTTNPPPAPSKSPEEMRKLFIQRAKKIDKISRIGFPMAFLIFNMFYWIIYKIVRREDVHNQ
modifications: synthetic sequence of chimeric LGIC
YFP fluorescence quenching using CNL001 (1 nM CNL001, first column): −7.82%
YFP fluorescence quenching using CNL001 (1 nM CNL001, second column): −8.382%
YFP fluorescence quenching using TC-5619/Bradanicline (1 nM brd): −5.548%
YFP fluorescence quenching using TC-5619/Bradanicline (3 nM brd): −9.432%
YFP fluorescence quenching using Varenicline (3 nM var, first column): −3.035
YFP fluorescence quenching using Varenicline (3 nM var, second column): −0.786
YFP fluorescence quenching using CNL001 (10 nM CNL001, first column): −5.381%
YFP fluorescence quenching using CNL001 (10 nM CNL001, second column): −1.431%
YFP fluorescence quenching using TC-5619/Bradanicline (10 nM brd): −3.068%
YFP fluorescence quenching using TC-5619/Bradanicline (30 nM brd): 2.368%
YFP fluorescence quenching using Varenicline (30 nM var, first column): −5.181
YFP fluorescence quenching using Varenicline (30 nM var, second column): 0.669
YFP fluorescence quenching using CNL001 (50 nM CNL001, first column): −0.999%
YFP fluorescence quenching using CNL001 (50 nM CNL001, second column): 3.909%
YFP fluorescence quenching using ABT-126 (50 nM abt): −14.1%
YFP fluorescence quenching using CNL001 (100 nM CNL001, first column): −0.823%
YFP fluorescence quenching using CNL001 (100 nM CNL001, second column): −5.885%
YFP fluorescence quenching using ABT-126 (100 nM abt): −11.72%
YFP fluorescence quenching using TC-5619/Bradanicline (100 nM brd): 47.529%
YFP fluorescence quenching using ABT-126 (300 nM abt): −12.98%
YFP fluorescence quenching using TC-5619/Bradanicline (300 nM brd): 74.413%
YFP fluorescence quenching using Varenicline (300 nM var, first column): −2.748
YFP fluorescence quenching using Varenicline (300 nM var, second column): −6.708
YFP fluorescence quenching using Varenicline (500 nM var, first column): −9.123
YFP fluorescence quenching using Varenicline (500 nM var, second column): −9.869
YFP fluorescence quenching using CNL001 (1 uM CNL001, first column): 1.638%
YFP fluorescence quenching using CNL001 (1 uM CNL001, second column): 3.483%
YFP fluorescence quenching using ABT-126 (1 uM abt): −15.09%
YFP fluorescence quenching using Varenicline (1 uM var, first column): −6.702
YFP fluorescence quenching using Varenicline (1 uM var, second column): −7.26
percent quench of YFP fluorescence, 30 nM TC-6683: −24.195%
percent quench of YFP fluorescence, 300 nM TC-6683: −24.234%
percent quench of YFP fluorescence, 3 uM TC-6683: −21.291%
percent quench of YFP fluorescence, 30 uM TC-6683: −16.363%
percent quench of YFP fluorescence, 100 uM TC-6683: −24.9%
percent quench of YFP fluorescence, 10 uM ach: −4.26%
percent quench of YFP fluorescence, 100 uM ach: −13.05%
percent quench of YFP fluorescence, 300 uM ach (acetylcholine 300 uM): −11.73%
percent quench of YFP fluorescence, 500 uM ach (acetylcholine 500 uM): −10.75%
percent quench of YFP fluorescence, 1 mM ach: −8.81%
percent quench of YFP fluorescence, 3 mM ach: −6.77%
percent quench of YFP fluorescence, 10 mM ach (acetylcholine 10 mM): −1.03%
